The target of this data set is T1, Ir-CPI (Ixodes ricinus Contact Phase Inhibitor), recombinant, without its peptide signal.
T1 chain: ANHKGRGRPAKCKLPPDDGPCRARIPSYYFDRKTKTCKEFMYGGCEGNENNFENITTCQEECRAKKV

B1: factor XIIa (protein)
chain: IPPWEAPKEHKYKAEEHTVVLTVTGEPCHFPFQYHRQLYHKCTHKGRPGPQPWCATTPNFDQDQRWGYCLEPKKVKDHCSKHSPCQKGGTCVNMPSGPHCLCPQHLTGNHCQKEKCFEPQLLRFFHKNEIWYRTEQAAVARCQCKGPDAHCQRLASQACRTNPCLHGGRCLEVEGHRLCHCPVGYTGAFCDVDTKASCYDGRGLSYRGLARTTLSGAPCQPWASEATYRNVTAEQARNWGLGGHAFCRNPDNDIRPWCFVLNRDRLSWEYCDLAQCQTPTQAAPPTPVSPRLHVPLMPAQPAPPKPQPTTRTPPQSQTPGALPAKREQPPSLTRNGPLSCGQRLRKSLSSMTRVVGGLVALRGAHPYIAALYWGHSFCAGSLIAPCWVLTAAHCLQDRPAPEDLTVVLGQERRNHSCEPCQTLAVRSYRLHEAFSPVSYQHDLALLRLQEDADGSCALLSPYVQPVCLPSGAARPSETTLCQVAGWGHQFEGAEEYASFLQEAQVPFLSLERCSAPDVHGSSILPGMLCAGFLEGGTDACQGDSGGPLVCEDQAAERRLTLQGIISWGSGCGDRNKPGVYTDVAYYLAWIREHTVS
On to B1, for which the “activation of factor XI into factor XIa by factor XIIa, reconstituted system with purified factors, chromogenic substrate” value was “Ir-CPI inhibits ... the activation of factor XI into factor XIa by factor XIIa”; the “activation of prekallikrein into kallikrein by factor XIIa, reconstituted system with purified factors, chromogenic substrate” value was “Ir-CPI inhibits the activation of prekallikrein into kallikrein by factor XIIa”; the “amidolytic activity (chromogenic substrate S-2302), protease preincubated with Ir-CPI at 1:5 molar ratio” value was “The results obtained did not show any effect of Ir-CPI protein on the amidolytic activity of these factors”.

B2: factor Xa (protein)
chain 1: ANSFLEEMKKGHLERECMEETCSYEEAREVFEDSDKTNEFWNKYKDGDQCETSPCQNQGKCKDGLGEYTCTCLEGFEGKNCELFTRKLCSLDNGDCDQFCHEEQNSVVCSCARGYTLADNGKACIPTGPYPCGKQTLER
chain 2: IVGGQECKDGECPWQALLINEENEGFCGGTILSEFYILTAAHCLYQAKRFKVRVGDRNTEQEEGGEAVHEVEVVIKHNRFTKETYDFDIAVLRLKTPITFRMNVAPACLPERDWAESTLMTQKTGIVSGFGRTHEKGRQSTRLKMLEVPYVDRNSCKLSSSFIITQNMFCAGYDTKQEDACQGDSGGPHVTRFKDTYFVTGIVSWGEGCARKGKYGIYTKVTAFLKWIDRSMKTRGLPKAKSHAPEVITSSPLK
B2: the “amidolytic activity (chromogenic substrate S-2222), protease preincubated with Ir-CPI at 1:5 molar ratio” value is recorded as “The results obtained did not show any effect of Ir-CPI protein on the amidolytic activity of these factors”.
